B1: BRCA1-A complex subunit Abraxas 1 (Homo sapiens), Q6UWZ7 (parent)
chain: MEGESTSAVLSGFVLGALAFQHLNTDSDTEGFLLGEVKGEAKNSITDSQMDDVEVVYTIDIQKYIPCYQLFSFYNSSGEVNEQALKKILSNVKKNVVGWYKFRRHSDQIMTFRERLLHKNLQEHFSNQDLVFLLLTPSIITESCSTHRLEHSLYKPQKGLFHRVPLVVANLGMSEQLGYKTVSGSCMSTGFSRAVQTHSSKFFEEDGSLKEVHKINEMYASLQEELKSICKKVEDSEQAVDKLVKDVNRLKREIEKRRGAQIQAAREKNIQKDPQENIFLCQALRTFFPNSEFLHSCVMSLKNRHVSKSSCNYNHHLDVVDNLTLMVEHTDIPEASPASTPQIIKHKALDLDDRWQFKRSRLLDTQDKRSKADTGSSNQDKASKMSSPETDEEIEKMKGFGEYSRSPTF

Variants of: B1
Details: with brca1_human BRCA1, P38398
Sequence of brca1_human BRCA1, P38398 (P38398 whole entry, looked up): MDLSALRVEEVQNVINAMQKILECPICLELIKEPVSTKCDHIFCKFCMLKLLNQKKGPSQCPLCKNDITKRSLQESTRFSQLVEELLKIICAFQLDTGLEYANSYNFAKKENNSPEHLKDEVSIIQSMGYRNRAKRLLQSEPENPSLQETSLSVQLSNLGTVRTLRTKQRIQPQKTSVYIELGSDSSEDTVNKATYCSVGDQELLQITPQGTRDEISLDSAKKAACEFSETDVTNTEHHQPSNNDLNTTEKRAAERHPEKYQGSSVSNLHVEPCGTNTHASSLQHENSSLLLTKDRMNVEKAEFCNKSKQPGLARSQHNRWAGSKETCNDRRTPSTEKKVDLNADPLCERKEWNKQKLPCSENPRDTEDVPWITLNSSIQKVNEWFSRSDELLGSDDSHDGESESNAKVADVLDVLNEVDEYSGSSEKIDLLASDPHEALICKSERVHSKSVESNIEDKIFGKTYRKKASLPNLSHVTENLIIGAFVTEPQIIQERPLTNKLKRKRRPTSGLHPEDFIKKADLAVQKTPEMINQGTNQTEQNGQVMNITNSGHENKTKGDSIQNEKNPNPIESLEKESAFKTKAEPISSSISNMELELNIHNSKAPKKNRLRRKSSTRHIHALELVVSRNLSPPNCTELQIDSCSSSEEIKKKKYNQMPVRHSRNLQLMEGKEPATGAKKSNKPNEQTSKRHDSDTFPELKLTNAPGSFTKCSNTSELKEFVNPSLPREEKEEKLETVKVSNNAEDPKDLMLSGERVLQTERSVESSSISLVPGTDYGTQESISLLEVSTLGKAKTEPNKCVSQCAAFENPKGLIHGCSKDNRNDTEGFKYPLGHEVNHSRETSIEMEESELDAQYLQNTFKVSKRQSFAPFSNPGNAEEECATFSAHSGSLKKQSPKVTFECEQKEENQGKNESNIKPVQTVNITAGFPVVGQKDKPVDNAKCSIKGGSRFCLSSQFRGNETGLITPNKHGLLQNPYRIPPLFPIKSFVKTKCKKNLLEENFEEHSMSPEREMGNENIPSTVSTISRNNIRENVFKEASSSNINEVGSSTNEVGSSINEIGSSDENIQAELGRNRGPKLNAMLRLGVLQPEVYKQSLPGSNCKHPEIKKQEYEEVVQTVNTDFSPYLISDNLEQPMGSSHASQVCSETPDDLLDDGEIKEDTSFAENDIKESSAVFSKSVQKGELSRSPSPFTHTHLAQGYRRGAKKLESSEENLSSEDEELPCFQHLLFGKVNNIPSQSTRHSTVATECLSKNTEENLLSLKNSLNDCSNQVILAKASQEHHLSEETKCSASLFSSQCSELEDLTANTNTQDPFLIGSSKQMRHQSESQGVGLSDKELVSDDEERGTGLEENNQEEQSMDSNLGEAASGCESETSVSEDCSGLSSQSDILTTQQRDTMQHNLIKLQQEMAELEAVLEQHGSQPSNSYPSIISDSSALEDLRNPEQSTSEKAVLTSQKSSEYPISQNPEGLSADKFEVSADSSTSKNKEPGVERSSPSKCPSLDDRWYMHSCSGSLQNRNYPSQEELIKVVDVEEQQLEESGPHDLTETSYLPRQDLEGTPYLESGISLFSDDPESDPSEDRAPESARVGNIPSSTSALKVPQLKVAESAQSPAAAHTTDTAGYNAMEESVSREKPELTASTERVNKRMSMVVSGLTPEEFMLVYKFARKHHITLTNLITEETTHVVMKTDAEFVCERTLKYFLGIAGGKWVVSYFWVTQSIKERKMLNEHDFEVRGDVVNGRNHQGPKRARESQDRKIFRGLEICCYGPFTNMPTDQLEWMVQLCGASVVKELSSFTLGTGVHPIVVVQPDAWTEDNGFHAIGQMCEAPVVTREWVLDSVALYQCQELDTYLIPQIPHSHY

effect of a mutation on the interaction | Variant
decreasing interaction | S406A

Reference: IntAct's records for PubMed 17643121
